One molecule from paper PMC2734569, “Functional mapping of the fission yeast DNA polymerase δ B-subunit Cdc1 by site-directed and random pentapeptide insertion mutagenesis” (BMC Molecular Biology, 2009) can be followed below.

Common to all, as to assay: two-hybrid; LexA-Cdc1 bait (pBTM116 or pBTM116BN) with Gal4-Pol3 prey and co-expressed c-myc-tagged Cdc27 (pAA-Cdc27) in S. cerevisiae CTY10-5d; ONPG liquid culture beta-galactosidase assay, mean of triplicates, as percent of wild-type Cdc1
What all share (settings): partners not purified

In one experiment the target is T1, Cdc1-J10 (Schizosaccharomyces pombe, UniProt P87324 1-462, Tyr-ArgGlyThrProTyr-Met).
T1 construct: Cdc1, S. pombe, with a pentapeptide inserted after residue 77; also called J11; E6; source: yeast two-hybrid fusion, in S. cerevisiae CTY10-5d
T1 sequence (looked up): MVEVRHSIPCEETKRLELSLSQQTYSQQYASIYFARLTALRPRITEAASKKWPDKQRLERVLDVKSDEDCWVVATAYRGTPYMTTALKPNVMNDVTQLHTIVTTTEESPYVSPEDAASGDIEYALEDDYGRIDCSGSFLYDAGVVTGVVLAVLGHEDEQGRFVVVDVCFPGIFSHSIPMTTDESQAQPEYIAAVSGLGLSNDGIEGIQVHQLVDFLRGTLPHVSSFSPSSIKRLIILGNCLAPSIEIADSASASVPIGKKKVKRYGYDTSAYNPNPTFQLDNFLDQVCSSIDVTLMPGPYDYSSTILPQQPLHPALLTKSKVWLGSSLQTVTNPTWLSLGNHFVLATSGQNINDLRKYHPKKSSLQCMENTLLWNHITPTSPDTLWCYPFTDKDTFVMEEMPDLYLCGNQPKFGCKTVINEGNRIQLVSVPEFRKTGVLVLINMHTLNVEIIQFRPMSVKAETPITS

For the next experiment, the target named is T2, Cdc1-J8 (Schizosaccharomyces pombe, UniProt P87324 1-462, Lys-GlyValProLeuLys-Pro).
T2 construct: Cdc1, S. pombe, with a pentapeptide inserted after residue 83; also called J19; source: yeast two-hybrid fusion, in S. cerevisiae CTY10-5d
T2 sequence (looked up): T1 sequence (looked up) with R78M, G79T, P81A, Y82L, M83K, T84G, T85V, A86P

In the next experiment the target is T3, Cdc1-J15 (Schizosaccharomyces pombe, UniProt P87324 1-462, Gln-GlyValProLeuGln-Val).
T3 construct: Cdc1, S. pombe, with a pentapeptide inserted after residue 203; source: yeast two-hybrid fusion, in S. cerevisiae CTY10-5d
T3 sequence (looked up): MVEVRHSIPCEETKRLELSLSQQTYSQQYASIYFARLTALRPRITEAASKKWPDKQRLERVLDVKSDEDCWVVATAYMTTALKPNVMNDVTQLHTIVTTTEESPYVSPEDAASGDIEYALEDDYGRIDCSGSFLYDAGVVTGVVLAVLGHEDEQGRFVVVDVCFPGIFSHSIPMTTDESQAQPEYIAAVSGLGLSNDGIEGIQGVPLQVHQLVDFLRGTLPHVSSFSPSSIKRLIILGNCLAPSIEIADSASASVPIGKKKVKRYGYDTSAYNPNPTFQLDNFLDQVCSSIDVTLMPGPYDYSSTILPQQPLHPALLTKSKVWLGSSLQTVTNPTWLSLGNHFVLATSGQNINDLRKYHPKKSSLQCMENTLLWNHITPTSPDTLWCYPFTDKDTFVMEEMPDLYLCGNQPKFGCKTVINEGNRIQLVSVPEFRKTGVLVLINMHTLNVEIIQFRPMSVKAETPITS

In a further experiment the target is T4, Cdc1-E4 (Schizosaccharomyces pombe, UniProt P87324 1-462, Cys-GlyValProProCys-Glu).
T4 construct: Cdc1, S. pombe, with a pentapeptide inserted after residue 10; source: yeast two-hybrid fusion, in S. cerevisiae CTY10-5d
T4 sequence (looked up): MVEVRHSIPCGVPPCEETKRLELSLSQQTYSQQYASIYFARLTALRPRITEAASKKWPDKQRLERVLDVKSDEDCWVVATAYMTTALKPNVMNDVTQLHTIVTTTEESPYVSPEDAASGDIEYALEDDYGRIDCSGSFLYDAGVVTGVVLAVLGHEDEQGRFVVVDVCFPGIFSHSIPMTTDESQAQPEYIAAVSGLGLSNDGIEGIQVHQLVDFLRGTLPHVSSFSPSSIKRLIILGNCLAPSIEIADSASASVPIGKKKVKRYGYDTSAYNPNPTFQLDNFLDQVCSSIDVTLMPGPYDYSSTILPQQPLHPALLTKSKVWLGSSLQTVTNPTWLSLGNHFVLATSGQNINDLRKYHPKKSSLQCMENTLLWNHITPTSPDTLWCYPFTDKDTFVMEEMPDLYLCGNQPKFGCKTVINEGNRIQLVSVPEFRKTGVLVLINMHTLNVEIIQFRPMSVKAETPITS

Substitutions are numbered along the chain they refer to.

B1: Pol3 (fission yeast DNA polymerase delta catalytic subunit) (natural protein, Schizosaccharomyces pombe, UniProt P30316 1-1086, looked up)
chain: MTDRSSNEGVVLNKENYPFPRRNGSIHGEITDVKRRRLSERNGYGDKKGSSSKEKTSSFEDELAEYASQLDQDEIKSSKDQQWQRPALPAINPEKDDIYFQQIDSEEFTEGSVPSIRLFGVTDNGNSILVHVVGFLPYFYVKAPVGFRPEMLERFTQDLDATCNGGVIDHCIIEMKENLYGFQGNEKSPFIKIFTTNPRILSRARNVFERGEFNFEELFPVGVGVTTFESNTQYLLRFMIDCDVVGMNWIHLPASKYQFRYQNRVSNCQIEAWINYKDLISLPAEGQWSKMAPLRIMSFDIECAGRKGVFPDPSIDPVIQIASIVTQYGDSTPFVRNVFCVDTCSQIVGTQVYEFQNQAEMLSSWSKFVRDVDPDVLIGYNICNFDIPYLLDRAKSLRIHNFPLLGRIHNFFSVAKETTFSSKAYGTRESKTTSIPGRLQLDMLQVMQRDFKLRSYSLNAVCSQFLGEQKEDVHYSIITDLQNGTADSRRRLAIYCLKDAYLPQRLMDKLMCFVNYTEMARVTGVPFNFLLARGQQIKVISQLFRKALQHDLVVPNIRVNGTDEQYEGATVIEPIKGYYDTPIATLDFSSLYPSIMQAHNLCYTTLLDSNTAELLKLKQDVDYSVTPNGDYFVKPHVRKGLLPIILADLLNARKKAKADLKKETDPFKKAVLDGRQLALKVSANSVYGFTGATNGRLPCLAISSSVTSYGRQMIEKTKDVVEKRYRIENGYSHDAVVIYGDTDSVMVKFGVKTLPEAMKLGEEAANYVSDQFPNPIKLEFEKVYFPYLLISKKRYAGLFWTRTDTYDKMDSKGIETVRRDNCPLVSYVIDTALRKMLIDQDVEGAQLFTKKVISDLLQNKIDMSQLVITKALSKTDYAAKMAHVELAERMRKRDAGSAPAIGDRVAYVIIKGAQGDQFYMRSEDPIYVLENNIPIDAKYYLENQLSKPLLRIFEPILGEKASSLLHGDHTRTISMAAPSVGGIMKFAVKVETCLGCKAPIKKGKTALCENCLNRSAELYQRQVAQVNDLEVRFARLWTQCQRCQGSMHQDVICTSRDCPIFYMRIAEHKKLQQSVDLLKRFDEMSW
notes: DNA polymerase delta catalytic subunit Pol3, S. pombe; prey plasmid named pACT-Pol3 in the results and pGAD2F-Pol3 in the methods; also called Gal4-Pol3; pACT-Pol3; source: yeast two-hybrid fusion, in S. cerevisiae CTY10-5d
Regarding B1, the “two-hybrid beta-galactosidase activity, % of wild-type Cdc1” value in the experiment with Cdc1-J10 was less than 1%; in the experiment with Cdc1-J8, less than 1%; with Cdc1-J15, 1%; in the experiment with Cdc1-E4 it was 16%.
